Results on 1 molecule are retold here after patent CN115141278A (BIO THERA SOLUTIONS LTD, dated 2022).

The target of this assay is T1, 食蟹猴VISTA-Fc (cynomolgus monkey, UniProt A0A7N9IB00 33-194).
T1 construct: Bought reagent; also called VISTA-Fc(食蟹猴，Sino biological Inc); not shown: Fc part
T1 sequence: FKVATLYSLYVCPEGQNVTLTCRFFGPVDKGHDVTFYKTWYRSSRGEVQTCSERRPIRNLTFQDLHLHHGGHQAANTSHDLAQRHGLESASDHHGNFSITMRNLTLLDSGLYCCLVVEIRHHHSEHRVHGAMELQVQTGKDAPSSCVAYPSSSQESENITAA
The experiment in a line: ELISA on coated VISTA-Fc, anti-human kappa-HRP detection.

B1: 阳性参照抗体VSTB112 (antibody, V domains shown)
VH: QVQLVQSGAEVKKPGSSVKVSCKASGGTFSSYAISWVRQAPGQGLEWMGGIIPIFGTANYAQKFQGRVTITADESTSTAYMELSSLRSEDTAVYYCARSSYGWSYEFDYWGQGTLVTVSS
VL: DIQMTQSPSSLSASVGDRVTITCRASQSIDTRLNWYQQKPGKAPKLLIYSASSLQSGVPSRFSGSGSGTDFTLTISSLQPEDFATYYCQQSAYNPITFGQGTKVEIKR
For the molecule B1, the concentration giving a half-maximal response (EC50) came out at 0.065 µg/mL.
